Source: patent US20050019833A1, “Proteins capable of binding to environmental hormones and process for producing the same” (priority 2002, published 2005)
Numbering of substitutions follows the chain as printed.

B1: anti-alkylphenol monoclonal antibody: monoclonal antibody (IgG2b, kappa) produced by mouse hybridoma AP-14 (FERM BP-6633) (antibody, V domains shown)
VH: QVQLQQSAAELARPGASVKMSCKASGYRFTRYTMHWVKQRPGQGLEWIGNINPSSGDTEYNQKFKDKTTLTADKSSTTAYMQLSSLTSEDSAVYYCATPIFYYGSRYVRYEMDYWGQGTSVTVSS
VL: DIVMTQAAFSNPVTLGTSTSISCRSTKSLLHSNGITYLYWYLQKPGQSPQLLIYQMSNLASGVPDRFSSSGSGTDFTLRISRVEAEDVGVYYCAQNLELPYTFGGGTKLEIKR
modifications: Mouse
B2: anti-alkylphenolethoxylate monoclonal antibody: monoclonal antibody (IgG1, kappa) produced by mouse hybridoma MOF3-139 (FERM BP-6059) (antibody, V domains shown)
VH: QVQLQQSGAELMKPGASVKISCKVTGYTFRSYWIEWVKQRPGHGLEWIGEILVGSGSTKYNEKFKGKATITAQTSSNTVYMQLSSLTSEDSAVYYCARPFFGSRYDYSDFWGQGTTLTVSS
VL: B1 VL with T17S, T19A, T26S, S32R, L51V
modifications: Mouse

What was measured:
[1] = indirect competitive ELISA, nonylphenoxyacetic acid standard solution; assay type: binding; conditions: FIG. 5; cross-reactivity (%)=[IC50 of NP10EO/IC50 of test compound]x100
Procedure: (§1) A nonylphenoldecaethoxylate (NPLOEO) standard solution was used in (A), a nonylphenoxyacetic acid (NPLEC) standard solution was used in (B), and a nonylphenol (NP) standard solution was used in (C).
(§2) Moreover, a nonylphenoldecaethoxylate (NPLOEO) standard solution was used in (A) and (B), a nonylphenoxyacetic acid (NPLEC) standard solution was used in (C) and (D) and a nonylphenol (NP) standard solution was used in (E) and (F).
(§3) A conjugate (5 μg/mL) of hapten and bovine serum albumin (BSA) (100 μL/each well) was added to a 96-well microtiter plate and stood at 4° C. overnight. After removing the liquid from the well, 300 μL of Block Ace (purchased from Dainippon Pharmaceutical Co., Ltd.) 4-fold diluted with distillated water was added to each well and stood at 4° C. overnight. After removing the liquid from the well, a standard solution (50 μL) of nonylphenol decaethoxylate stepwise diluted with phosphate buffer (10 mM sodium phosphate (purchased from Nacalai Tesque, Inc.), 150 mM NaCl, pH 7.2) was added to each well. […] The mixture was incubated at 25° C. for 1 hr and each well was washed 4 times with a phosphate buffer. Then, 100 μL of mouse anti-HSV tagged antibody (purchased from Amersham Pharmacia Biotech), diluted with a phosphate buffer to 0.1 μg/mL, was added to each well and the mixture was incubated at 25° C. for 1 hr. […] The absorbance at wavelength of 450 nm was measured.

[2] = indirect competitive ELISA, nonylphenol standard solution; assay type: binding; conditions: FIG. 5; cross-reactivity (%)=[IC50 of NP10EO/IC50 of test compound]x100
Procedure: as §1, §2, §3

Molecule | cross-reactivity with NP1EC [1] | cross-reactivity with NP [2]
B1 | shows cross-reactivity | shows cross-reactivity
B2 | hardly shows cross-reactivity | hardly shows cross-reactivity
